Data taken from paper PMC4201290, “Wilms tumor protein recognizes 5-carboxylcytosine within a specific DNA sequence”.

B1: crystal oligo Egr1 5mC/5mC (dsDNA)
DNA 1: AGCGTGGGCGT
DNA 2: TACGCCCACGC
modifications: 5mC in both strands of the 3' GCG
B2: crystal oligo Egr1 5hmC/5hmC (dsDNA)
DNA 1: AGCGTGGGCGT
DNA 2: TACGCCCACGC
modifications: 5hmC in both strands of the 3' GCG
B3: crystal oligo Egr1 5fC/5fC (dsDNA)
DNA 1: AGCGTGGGCGT
DNA 2: TACGCCCACGC
modifications: 5fC in both strands of the 3' GCG

Target: Egr1/Zif268 ZnF1-3 (Homo sapiens, UniProt P18146)
Assay: X-ray crystallography; Zn2+; FP: 5 nM FAM-dsDNA, 300 mM NaCl (200 mM in Fig 4E), 20 mM Tris-HCl pH 7.5, 5% glycerol, 0.5 mM TCEP, 25 C, 10 min

Binder	binding result
B1	binds
B2	binds
B3	binds
